Holding throughout (experiment): SPR, scFv captured by anti-V5, RBD analyte
On the technique in general: In SPR one partner is held on a chip, and binding of the other changes the refractive index at the surface.

The target of test [1] is T1, SARS-CoV-2 Receptor Binding Domain (RBD) protein (SARS-CoV-2, UniProt P0DTC2 319-541).
The target in test [2] is MERS Receptor Binding Domain (RBD) protein (Middle East Respiratory Syndrome (MERS) …, UniProt K9N5Q8 367-606).
In test [3] the target is SARS-CoV-1 Receptor Binding Domain (RBD) protein (SARS-CoV-1, UniProt P59594 306-527).
The target in test [4] is T1, SARS-CoV-2 Receptor Binding Domain …. The source holds these as a separate data set.

Like-named read-outs stand apart in the source and are kept apart here.

B1: COVID19_R02_B08 (scFv, V domains shown)
VH: QVQLVQSGAEVKKPGASVKVSCKASGYTFTSYYIHWVRQAPGQGLEWMGIINPRGGSTSYAQKFQGRVTMTRDTSTSTVYMELSSLRSEDTAVYYCTREAKPQLLRTLDYWGQGTLVTVSS
VL: DIQMTQSPSSLSASVGDRVTITCRASQGIDTYLNWYQQKPGKAPKLLIYKASSLESGVPSRFSGSGSGTEFTLTINSLQPEDIATYYCQQYDNLPLTFGGGTKVEIKR
For B1, the Kd – broadly, the equilibrium constant for the complex coming apart – in test [1] stood at 0.166 µM.

B2: COVID19_R02_A12 (scFv, V domains shown)
VH: QVQLVQSGAEVKKPGASVKVSCKASGYTFTENEMHWVRQAPGQGLEWMGIINTSGGYTNYAQKFQGRVTMTRDTSTSTVYMELSSLRSEDTAVYYCTREGIPQLLRTLDYWGQGTLVTVSS
VL: DIQMTQSPSSLSASVGDRVTITCRASQSISSWLAWYQQKPGKAPKLLIYAASSLQSGVPSRFSGSGSGTDFTLTISSLQPEDFATYYCQQSYSNPYTFGGGTKVEIKR
Turning to B2, the binding result in test [2] is recorded as “no binding (tested: 300 nM)”. Further, in test [3], the binding result was “no binding (tested: 300 nM)”. Besides, in test [4], the Kd is 0.0463 µM; the koff – broadly, a measure of how fast the partners let go of each other – was 0.0102 s⁻¹; the kon (as a rule, a measure of how fast the partners come together) came out at 219000 M⁻¹ s⁻¹.

B3: COVID19_P06_C09 (scFv, V domains shown)
VH: QVQLVQSGAEVKKPGASVKVSCKASGYTFTSYEINWVRQAPGQGLEWMGVINPSGGHTNYAQKFQGRVTMTRDTSTSTVYMELSSLRSEDTAVYYCTREGIPQLAGTLDYWGQGTLVTVSS
VL: DIQMTQSPSSLSASVGDRVTITCRASQSISGYLNWYQQKPGKAPKLLIYAASSLESGVPSRFSGSGSGTDFTLTISSLQPEDFATYYCQQGYTTPRTFGGGTKVEIKR
For the molecule B3, the binding result in test [2] is on record as “no binding (tested: 300 nM)”. Moreover, the binding result in test [3] is given as “no binding (tested: 300 nM)”. In addition, in test [4], the Kd is 0.00247 µM, the koff amounted to 0.00074 s⁻¹ and the kon stood at 300000 M⁻¹ s⁻¹.

B4: COVID19_P06_G02 (scFv, V domains shown)
VH: QVQLVQSGAEVKKPGASVKVSCKASGYTFTSHDINWVRQAPGQGLEWMGMINPSGGYTSYAQNFQGRVTMTRDTSTSTVYMELSSLRSEDTAVYYCTREGIPALLRTLDYWGQGTLVTVSS
VL: DIQMTQSPSSLSASVGDRVTITCRASQGIRNDLGWYQQKPGKAPKLLIYAASSLQSGVPSRFSGSGSGTDFTLTISSLQPEDFATYYCQQTYTTPYTFGGGTKVEIKR
For B4, the binding result in test [2] was “no binding (tested: 300 nM)”. For the same molecule, the binding result in test [3] is given as “no binding (tested: 300 nM)”. In test [4], the Kd is 0.00692 µM, the koff came to 0.0009 s⁻¹ and the kon worked out at 130000 M⁻¹ s⁻¹.

B5: COVID19_R02_C12 (scFv, V domains shown)
VH: QVQLVQSGAEVKKPGASVKVSCKASGYTFTSYDINWVRQAPGQGLEWMGMVDPNSGNTYYAQKFQGRFTMTRDTSTSTVYMELSSLRSEDTAVYYCTREGIPQLLGTLDYWGQGTLVTVSS
VL: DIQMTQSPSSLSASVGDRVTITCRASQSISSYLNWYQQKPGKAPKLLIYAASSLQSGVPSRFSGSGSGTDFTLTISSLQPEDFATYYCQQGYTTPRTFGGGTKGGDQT
As for B5, the binding result in test [2] is “no binding (tested: 300 nM)”. The binding result in test [3] was “no binding (tested: 300 nM)”. Also, in test [4], binding was characterised by a dissociation constant (Kd) of 0.0082 µM, the koff amounted to 0.00059 s⁻¹ and the kon was determined as 72000 M⁻¹ s⁻¹.

B6: COVID19_P06_F03 (scFv, V domains shown)
VH: QVQLVQSGAEVKKPGASVKVSCKASGYTFTSYSMHWVRQAPGQGLEWMGAIYPGNSDTTYAQKFQGRVTMTRDTSTSTVYMELSSLRSEDTAVYYCTLDGIPQLLRTLDYWGQGTLVTVSS
VL: DIQMTQSPSSLSASVGDRVTITCRASQSISSYLNWYQQKPGKAPKLLIYGVSSLHSGVPSRFSGSGSGTDFTLTISSLQPEDFATYYCLQYVSYPWTFGGGTKVEIKR
As for B6, the binding result in test [2] was “no binding (tested: 300 nM)”. In addition, in test [3], the binding result is reported as “no binding (tested: 300 nM)”. In test [4], this molecule showed a Kd of 0.0326 µM, a koff of 0.00532 s⁻¹ and a kon of 163000 M⁻¹ s⁻¹.

(Values after patent US11028167 (CENTIVAX, dated 2021).)
